Where a chain is given by its changes, count along the chain named. Names and notes keep the numbering of the source. Each block holds one molecule with its values, some of them ahead of it.
What was measured:
hGCase = assay: Inhibition of hGCase using isofagomine (IFG), IC50 determination; format: biochemical, human; settings: reversible inhibitor isofagomine on the named hGCase variant; 25 nM protein, 10 min pre-incubation at RT, 20 μM res-β-glc
Procedure: IFG is a competitive, reversible inhibitor of hGCase, interacting with the active pocket of the enzyme (Powe et al., 2006).
To calculate the IC50, a concentration range of 0.002-100 μM IFG was tested. IFG was prepared with a stock concentration of 1 mM in DMSO. The final enzyme concentration was 25 nM. After adding the inhibitor to the enzyme, the solution was pre-incubated for 10 min at RT before adding the substrate (20 μM) for the activity measurement.
The evaluation and IC50 determination were done using GraphPad Prism7. hGCase activity with no inhibitor added was set to 100% relative enzyme activity. In case of evaluating the raw data via GraphPadPrism7, the applied inhibitor concentrations were first transformed to log 10×-values plottet on the x-axis. Further, the raw data measured with the activity assay in RFU was normalized to the highest activity value within one data set (equals 100%). 100% signal was defined as 10-12 μM IFG (=no inhibitor added). Data points were fitted and IC50 values were determined using log(inhibitor) vs. response-variable slope (four parameters) (GraphPadPrism7) following equation 9: […]
To determine whether the active binding site of an enzyme is compromised or altered, IC50 values were calculated for active site inhibitor and compared. In this work, the natural occurring GCase inhibitor isofagomine (IFG) and conditurol-β-epoxide (CBE) were used. IFG is known as a reversible inhibitor, interacting with the active site of the GCase enzyme, whereas CBE is an irreversible inhibitor of GCase (Powe et al., 2006). The IC50 of an enzyme is defined as the concentration of an inhibitor, where the response, in this case the enzyme activity, is reduced by half (Kalliokoski et al., 2013). Both assays were conducted as described in section 2.5.6. The inhibitor profiles of M53T/P55T using IFG and CBE as well as the IC50 profiles of all residual mutants combined are shown in FIG. 4.
The raw data was plotted by transforming the applied IFG/CBE concentration to a logarithmic scale (x-axis, FIG. 4) and by normalizing the activity signal with highest signal of each data set to 100% (defined with apparent inhibitor concentration of 10-12 μM, equal to no inhibitor). IC50 values were calculated using GraphPad Prism7 following equation 9.

[1] = Thermal shift assay via nanoDSF measurement (unfolding temperature); format: physicochemical; settings: Prometheus NT.Plex, 3° C./min, 0.06-0.5 mg/ml
Procedure: The thermal shift assay was performed via nanoDSF (differential scanning fluorimetry) measurements using Prometheus NT.Plex nanoDSF (NanoTemper Technologies). The measurement was initialized using the software PR.ThermoControl. Prometheus can precisely characterize samples by measuring the thermal unfolding, chemical denaturation and aggregation within one single run (NanoTemper Technologies, 2019). By gradually heating the sample until reaching 95° C., the protein unfolds. Thereby, the chemical environment of tryptophan residues changes (change in intrinsic tryptophan fluorescence of protein due to more aqueous environment), causing a red-shift in fluorescence (tryptophan fluorescence emission shift). By plotting the fluorescence ratio 350/330 nm against the temperature, the melting temperature Tm can be determined. Calculating the first derivative of raw data gives a peak curve with its maximum indicating the unfolding temperature Tm.
For the sample preparation, a concentration of 0.5 mg/ml was adjusted for the hGCase mutants. For variant I5N and R495HS2, protein concentrations of 0.075 mg/ml (I5N) and 0.06 mg/ml (R495HS2) were applied due to low protein yields. 15 μl total sample volume was uptaken in each capillary of the capillary rack (Prometheus NT.Plex Capillary Chips, NanoTemper) and placed in the device. The excitation power was adjusted to 20-80%, depending on the applied protein concentration. The gradually heating was set to 3° C./min until reaching 95° C. (20° C. was set as starting temperature). The evaluation and calculation of the first derivative was done using the NanoTemper PR.ThermoControl software, the final evaluation and graphing was done using the PR.StabilityAnalysis software.
On the one hand, a successively increasing temperature gradient was applied to measure melting temperatures of protein molecules via nanoDSF (differential scanning fluorimetry) measurement using Prometheus NT.Plex (NanoTemper Technologies, 2019). The sample is gradually heated by increasing the temperature until reaching 95° C. Thereby, the protein unfolds and tryptophan residues experience a change in chemical environment (exposure to a more aqueous environment), which changes the intrinsic tryptophan fluorescence of the protein, causing a red shift in the fluorescent spectrum (350/330 nm=tryptophan fluorescence emission shift) (Schubert, 2015). In FIG. 1, typical melting curves of such an unfolding experiment are shown.
In the upper section of the graphs (FIGS. 1 (A) and (B)), the raw data (progression curves) measured with nanoDSF is plotted, indicating the shift in the fluorescence ratio 350/330 nm during the course of the measurement with increasing temperature. The calculation of the first derivative, giving peak curves (lower section of graphs in (A) and (B)), was done according to default settings of the Software PR.StabilityAnalysis (table 2). Peak maxima (thermal unfolding transition midpoint) indicate the unfolding temperature Tm, where half of the proteins are unfold (Schubert, 2015).

[2] = pH screening of hGCase variants (activity assay, pH 3.5-8); format: biochemical; settings: for relative activity: highest activity = 100%; for pH optimum: pH range 3.5-8, 75 nM protein, 100% relative activity
Procedure: For all further GCase characterization experiments including the activity assay, 20 μM substrate concentration, 30-40 min incubation time and protein concentrations ranging from 25-100 nM were set as final assay settings to ensure measurements in the linear range. The overall DMSO concentration within the assay was kept at 0.5% (v/v) or even below, since DMSO influences the fluorescent signal with higher concentrations (experimentally tested, data not shown; confirmed by (Urban et al., 2008). Therefore, GCase activity buffer+1% (v/v) DMSO was also used for dilutions (table 2.9). The plate reader SpectraMax i3 (Molecular Devices) including the analysis software SoftMax Pro 6.4 was used for all activity measurements within this work. The program settings were kept the same for all activity runs: kinetic run, measurement temperature: 37° C., PMT Gain: high; flashes per read: 6; read height: 0.73305 mm from plate.
A pH optimum screening was done to observe a possible shift in the pH spectrum of the new variants due to structural modification of the enzymes. Therefore, three different buffers were used, covering a pH range of pH 3.5 to 8. For the screening, buffer substances were chosen after the use for purification buffers. Therefore, following buffers were prepared: Citric acid buffer (20 mM, pH 3.5-5), MES buffer (20 mM, pH 6-6.5) and HEPES buffer (20 mM, pH 7-8). The final protein concentration used for this assay was 75 nM. The activity assay was done as described in section 2.3.5 (table 2.11), merely the buffer was varied.
A possible pH optimum shift due to structural modifications should be examined. Since the GCase enzyme originally occurs within the lysosome, its natural pH optimum is reported to be between pH 4.7-6.0 (Lieberman et al., 2007; Liou et al., 2006; Tan et al., 2014). This could change when including slight modifications in the structure of the molecule. Thus, the mutants were tested within a pH range of 3.5 to 8 for enzymatic activity.

[3] = pH 3.5, 20 mM citric acid buffer

IC50 (hGCase): 28 ± 3 nM
B1: F31Y: recombinant human β-glucocerebrosidase variant R495H/F31Y, S2 cells; Seq. Id. No. 5 (protein, listed as Homo sapiens)
chain: ARPCIPKSFGYSSVVCVCNATYCDSFDPPTYPALGTFSRYESTRSGRRMELSMGPIQANHTGTGLLLTLQPEQKFQKVKGFGGAMTDAAALNILALSPPAQNLLLKSYFSEEGIGYNIIRVPMASCDFSIRTYTYADTPDDFQLHNFSLPEEDTKLKIPLIHRALQLAQRPVSLLASPWTSPTWLKTNGAVNGKGSLKGQPGDIYHQTWARYFVKFLDAYAEHKLQFWAVTAENEPSAGLLSGYPFQCLGFTPEHQRDFIARDLGPTLANSTHHNVRLLMLDDQRLLLPHWAKVVLTDPEAAKYVHGIAVHWYLDFLAPAKATLGETHRLFPNTMLFASEACVGSKFWEQSVRLGSWDRGMQYSHSIITNLLYHVVGWTDWNLALNPEGGPNWVRNFVDSPIIVDITKDTFYKQPMFYHLGHFSKFIPEGSQRVGLVASQKNDLDAVALMHPDGSAVVVVLNRSSKDVPLTIKDPAVGFLETISPGYSIHTYLWHRQ
notes: recombinant human β-glucocerebrosidase variant R495H/F31Y, S2 cells; Id; No. 5
unfolding temperature Tm [1]: 55.1 ± 0.1 °C
relative activity [2, 3]: ~80%
pH optimum [2]: 6 pH

IC50 (hGCase): 27 ± 6 nM
loss of activity [2, 3]: 40%
B2: imiglucerase (protein, UniProt P04062 40-536, looked up, variant R495H)
Lysosomal acid …: B1 chain with Y31F
modifications: imiglucerase; CHO-produced
notes: Commercially available Cerezyme (imiglucerase, Genzyme), hGCase R495H produced in CHO cells
unfolding temperature Tm [1]: 55.2 ± 0.0 °C

IC50 (hGCase): 26 ± 3 nM
activity at pH 8 ([2]; pH 8, 20 mM HEPES buffer): completely inactive
B3: I5N: recombinant human β-glucocerebrosidase variant R495H/I5N, S2 cells; Seq. Id. No. 4 (protein, listed as Homo sapiens)
chain: B1 chain with I5N, Y31F
notes: recombinant human β-glucocerebrosidase variant R495H/I5N, S2 cells; Id; No. 4
unfolding temperature Tm [1]: 54.8 ± 0.4 °C
relative activity [2, 3]: 75%

IC50 (hGCase): 22 ± 4 nM
B4: L34Q: recombinant human β-glucocerebrosidase variant R495H/L34Q, S2 cells; Seq. Id. No. 6 (protein, listed as Homo sapiens)
chain: B1 chain with Y31F, L34Q
notes: recombinant human β-glucocerebrosidase variant R495H/L34Q, S2 cells; Id; No. 6
unfolding temperature Tm [1]: 55.2 ± 0.0 °C
relative activity [2, 3]: ~80%
pH optimum [2]: 6 pH

— patent US20220325265A1, “GLUCOCEREBROSIDASE MUTANTS” (Hoffmann-la Roche Inc., priority 2019, published 2022)
